Experiment [1] deals with HPV16 L2 in HPV16 L1/L2 capsids (pseudovirions, L1/L2 VLPs) (human papillomavirus 16 (HPV16)) (UniProt P03107). Put plainly: HPV16 L1/L2 VLP ELISA.
Experiment [2] has the same target.
For experiment [3], the target named is full length HPV16 L2 protein (ELISA and Western blot antigen) (human papillomavirus 16 (HPV16)) (UniProt P03107). Put plainly: L2 protein ELISA, undiluted hybridoma supernatant. For orientation: An ELISA detects its analyte on a solid surface through an enzyme-linked reagent.
The target in experiment [4] is HPV16 L2 in HPV16 L1/L2 capsids (pseudovirions, L1/L2 VLPs) (human papillomavirus 16 (HPV16)) (UniProt P03107). Put plainly: HPV16 L1/L2 VLP ELISA, undiluted hybridoma supernatant.
Experiment [5] has as its target HPV18 L2 in HPV18 pseudovirions (human papillomavirus 18 (HPV18)) (UniProt P06793).
In experiment [6] the target is HPV16 L2 in HPV16 L1/L2 capsids (pseudovirions, L1/L2 VLPs) (human papillomavirus 16 (HPV16)) (UniProt P03107). This is another data set of the same source.

RG-1 (antibody) registered an ELISA titer (titer (1:x dilution)) in experiment [1] of 1.02e+06. In experiment [2], this substance gave an HPV16 neutralization (undiluted hybridoma supernatant titrated) (titer (1:x dilution)) of 1280. In addition, the OD405 L2 ELISA in experiment [3] was 1.3 OD405. The substance also displayed an OD405 L1/L2 ELISA in experiment [4] of 0.9 OD405. The neutralization of HPV18 pseudovirions, RG-1 ascites (titer (1:x dilution)) in experiment [5] was 25600. The substance further registered a neutralization of HPV16 pseudovirions, RG-1 ascites (titer (1:x dilution)) in experiment [6] of 205000.

The values are drawn from patent US20090047301A1.
